Test results taken from the supplement of paper PMC11908140.

B1: library; numbered along this chain (parent)
chain: MRKPRAAVGSGHRKQAASQEGRQKHAKNNSQAKPSACDGLARQPEEVVLQASVSSYHLFRDVAEVTAFRGSLLSWYDQEKRDLPWRRRAEDEMDLDRRAYAVWVSEVMLQQTQVATVINYYTGWMQKWPTLQDLASASLEEVNQLWAGLGYYSRGRRLQEGARKVVEELGGHMPRTAETLQQLLPGVGRYTAGAIASIAFGQATGVVDGNVARVLCRVRAIGADPSSTLVSQQLWGLAQQLVDPARPGDFNQAAMELGATVCTPQRPLCSQCPVESLCRARQRVEQEQLLASGSLSGSPDVEECAPNTGQCHLCLPPSEPWDQTLGVVNFPRKASRKPPREESSATCVLEQPGALGAQILLVQRPNSGLLAGLWEFPSVTWEPSEQLQRKALLQELQRWAGPLPATHLRHLGEVVHTFSHIKLTYQVYGLALEGQTPVTTVPPGARWLTQEEFHTAAVSTAMKKVFRVYQGQQPGTCMGSKRSQVSSPCSRKKPRMGQQVLDNFFRSHISTDAHSLNSAAQ

Variants of: B1
Assay: 8OG:A repair function score (normalized; synonymous = 0, nonsense = -1) (normalized log-likelihood score); higher = more repair activity (WT-like)
Details: with 8OG:A DNA repair reporter (GFP) in HEK-293 MUTYH KO cells
Protocol: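 Saturation mutagenesis (NNN codon scan) of the MUTYH cDNA (521-aa nuclear isoform NM_001048174.1 / NP_001041639), stably expressed under doxycycline induction in HEK-293 MUTYH knockout cells. Cells were co-transfected with an 8OG:A-bearing GFP repair reporter plus mCherry and sorted 72 h later into GFP+ and GFP− bins, three replicates per tile. The Rosace log2 enrichment (GFP+ vs GFP−) was converted per tile to a normalized function score with synonymous variants centered at 0 and nonsense variants (codons 1-471) at -1; low-abundance variants were removed.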

8OG:A repair function score: each site, then its substitutions
S74: R 0.00425 | H 0.00229 | P 0.00278 | D -0.132 | N -0.0112 | M 0.00605 | K -0.0253 | I -0.0694 | W -0.0127 | L -0.0187 | E 0.00141 | C -0.0037 | G -0.00226 | Y 0.00544 | Q 0.00637 | V -0.0223 | T -0.0089 | F -0.0182
W75: K -1.2 | S -1.58 | P -3.8 | F -0.21 | C -1.25 | T -3.63 | Q -1.46 | L -2.04 | Y -0.448 | A -1.3 | V -1.78 | E -1.57 | R -1.13 | D -3.7 | G -1.2 | I -2.41 | H -0.412 | M -1.05 | N -2.91
G70: R 0.00416 | P -0.126 | T -0.693 | S -0.0056 | Q -0.528 | M -0.00743 | V 0.0055
L73: E -0.46 | N -0.718 | C -0.0699 | R -0.593 | H -0.344 | F -0.261 | K -0.453 | Y -2.08 | G -0.786 | T -0.136 | P -1.57 | Q -0.236 | V -0.108 | M -0.0108 | A -0.307 | W -0.824 | I -0.0679 | S -0.594 | D -1.01
D77: W -0.0696 | F -0.0355 | H -0.228 | A -0.0463 | K -0.0637 | P -0.464 | G -0.0368 | V -0.0835 | S -0.0758 | E -0.0615 | R -0.122 | T -0.0415 | M -0.0782 | Q -0.0294 | L -0.131 | N -0.122 | Y -0.0402 | I -0.0954 | C -0.0754
L72: D -1.11 | S -0.775 | W -0.994 | G -1.17 | R -1.65 | Q -1.44 | P -1.34 | V -0.446 | N -2.41 | Y -1.03 | I -0.0959 | T -0.206 | C -0.229 | E -1.21 | M -0.732 | K -1.1 | A -0.207 | H -1.08 | F -1.08
S71: P -0.0398 | E -0.0479 | R -0.0148 | K -0.0254 | W 0.000735 | G -0.000985 | L -0.00671 | N -0.00566 | H -0.0346 | D -0.0972 | V 0.00531 | Q -0.0211 | A -0.0236 | Y -0.0584 | F 0.00684 | I -0.125 | M 0.00635 | T -0.0759 | C -0.00534
Y76: I -1.28 | N -1.1 | S -1.16 | M -1.2 | E -1.5 | P -1.8 | T -1.06 | Q -1.53 | D -1.25 | L -1.17 | R -1.37 | H -0.27 | V -1.41 | K -1.41 | F -0.0268 | W -0.136 | G -1.14 | C -1.48 | A -1.05
Q78: M -0.517 | P -0.138 | G -0.0331 | S 0.00682 | Y -0.12 | L -0.0196 | W -0.0301 | C -0.996 | N -0.105 | E 0.00685 | D -0.00768 | T -0.00936 | H -0.0658 | A -0.00817 | R 0.00285 | K -0.0833 | F -0.0455 | V 0.00652 | I -0.00974
E79: K 0.0062 | H -0.0574 | I 0.00691 | F 0.000542 | D -0.145 | A 0.00477 | G -0.00351 | C -0.0344 | L -0.0186
